Measurements taken from patent US20240043505A1 (UNIVERSITY OF PITTSBURGH OF THE COMMONWEALTH SYSTEM OF …, published 2024).
Positions count from the first letter of the chain named. Several values for one entry are separate records, joined by “and”; a condition that tells them apart may be missing. Equal entries are not always repeated.

B1: Nb11 (VHH)
VHH: HVQLVESGGGLVQAGGSLRLSCAVSGASAERVGWFRRAPGKEREFVAAIGANGGSTNYLDSVKGRFTISRDNAKNTVYLQMNSLKPQDTAVYYCAARNLETFDYTYWGRGTQVTVSS
B2: Nb78 (VHH)
VHH: B1 VHH with H1Q, V24I, E30N, N52S, S55M, L99I, F102A, D103E, R109Q
B3: Nb9 (VHH)
VHH: HVQLVESGGGLVQTGGSLRLSCAFSGYTFSTFPTAWFRQAPGKEREFVAGIRWNGGSRDYTEYADFVKGRFTISRDNAKNMIYLQMISLKPEDTALYYCAASHGVVDGTSVNGYRYWGQGTQVTVSS
B4: Nb16 (VHH)
VHH: DVQLVESGGGLVQAGESLRLSCAASGDMFSSNAMAWYRQAPGKQRELVASITSGGNTNYADSVKGRFTISRDNAKNTVYLQMDSLKPEDTAVYYCNGVAYDYSWGRPRNFWGQGTQVTVSS
B5: Nb99 (VHH)
VHH: QVQLVESGGGLVQTGGSLRLSCAASGSTRSIWYSGWYRQAPGKQRELVASLTSGGTTYYPDSMKGRFTISGSSGLNMVYLQMNSLRPEDTAVYSCNVRTGSGVYWGQGTQVTVSS
B6: Nb64 (VHH)
VHH: QVQLVESGGGLVQAGGSLRLSCAVSGRTFSIAGMGWFRQAPGKDREFLGGITWNDGTTWYADSVKGRFTISRDNAKNMLSLRMNSLKPEDTAVYYCAAGPRLGSTPRAYDYWGQGTQVTVSS
B7: Nb107 (VHH)
VHH: HVQLVESGGGLVQAGGSLRLSCAASGRAIGIHRMAWFRQAPGKERAFVAAIQWTGDMPTYADSLKGRFTISADNAKNTVSLQMTSLKPDDTAVYYCAARSATTALYDYWGQGTQVTVSS
B8: Nb93 (VHH)
VHH: EVQLVESGGGLVQPGGSLRLSCAASGFTFSSYAMSWVRQAPGKGREWVAGITPGSGTFYADSVKGRFTISRDNAKNTLSLEINSLKPEDTALYYCAKCRQEFSWDFSSRDPDDFDYWGQGTQVTVSS
B9: Nb20 (VHH)
VHH: QVQLVESGGGLVQAGGSLRLSCAVSGAGAHRVGWFRRAPGKEREFVAAIGASGGMTNYLDSVKGRFTISRDNAKNTIYLQMNSLKPQDTAVYYCAARDIETAEYIYWGQGTQVTVSS
B10: Nb28 (VHH)
VHH: HVQLVESGGGLVQAGGSLRLSCAASGRTFSTSTMDMGWFRQAPGKEREFVGADSWNDGRTYYADSVKGRFTISRDNAKNTLYLQMNNLKPEDTAVYYCAAETYSLYEKSDSWGYWGQGTQVTVSS
B11: Nb102 (VHH)
VHH: QVQLVESGGGLVQAGGSLRLSCAASGRTFSNSHMGWFRQAPGKEREFVAVISRSGGSTLYADSVKGRFTISRDNAKNTVYLQMNSLKPEDTAVYYCAASRTAGLTSNRSLYDYWGRGTQVTVSS
B12: Nb92 (VHH)
VHH: HVQLVESGGGLVQAGGSLRLSCAASGRTFSAYGMGWFRQAPGKEREFVAGIARSGSEYYGDSVKGRFTISRDNAKNTVYLQMASLKAEDTGVYYCAADPTILYHALSQRTQNYRYWGPGTQVTVSS
B13: Nb6 (VHH)
VHH: HVQLVESGGGLVQAGGSLRLSCAASGRTFSTHATGWFRQAPGKEREFLATSVWLDDISRDSTYYAESVKGRFSISRDNAKDTVYLQMNSLKPEDTAVYYCAVKQRVGPGIMSAPTYDYWGQGTQVTVSS
B14: Nb82 (VHH)
VHH: DVQLVESGGGLVQAGGSLGLSCAASGSIFRLTAMGWYRQAPGKQRDLVTTITSAGIPHYADSVKGRFTISRDNAKNTVYLQMNGLKPEDTAVYYCYANTLNSQLLPRAYWGQGTQVTVSS
B15: Nb90 (VHH)
VHH: HVQLVESGGGLVQAGGSLRLSCAVSGRTVSSYVMGWFRQAPGKEREFVAGIGRTGMTITADSVKGRFTISRDNAKNLVYLQMNSLKSEDTAVYWCAAGVRDFAPRIDSYDYWGQGTQVTVSS
B16: Nb48 (VHH)
VHH: HVQLVESGGGLVQAGGSLRLSCAASGSIFRHYNMGWFRQAPGKEREFVSAISWTNIGTYYADSVKGRFSISRDNNRNTAYLEMNSLKPEDTAVYYCAADRSEFGSRLYSDENEYDYWGQGTQVTVSS
B17: Nb28 (VHH)
VHH: B10 VHH
B18: Nb36 (VHH)
VHH: B10 VHH with R19T, S21T, T31S, S32E, G51A, R59S, N76S, N87S, L105I, S109D
B19: Nb102 (VHH)
VHH: B11 VHH
B20: Nb99 (VHH)
VHH: B5 VHH
B21: Nb66 (VHH)
VHH: HVQLVESGGGLVQAGGSLRLSCAASGRTFSVNSIAWFRQAPGKEREFVATINWSGGDIYYADSVKGRFTISRDNGKNTVYLQMNSLKPTDTAVYYCAAARFYGRSIAQDYDSWGQGTQVTVSS
B22: Nb96 (VHH)
VHH: HVQLVESGGGLVQAGDSLRLSCAASGRDFSSYAMGWFRQAPGKEREFVGVISSGDVGTFYEDSVKGRFTISRDDAKNTVDLQMNSLKPEDTAVYYCAAALYVTSTRGSYAYWGQGTQVTVSS
B23: Nb83 (VHH)
VHH: HVQLVESGGGLVQPGGSLRLSCAASGRSFNSYLMGWFRQAPGKEREFVAWISGSPHDIIRYRDSVKDRFTISRDNAKNTVYLQMNSLKPVDTAVYYCAVGSLRVGSFSPDYWGQGTQVTVSS
B24: Nb105 (VHH)
VHH: HVQLVESGGGLVQAGGSLRLSCAVSGRTFSTYGMAWFRQAPGKERDFVATITRSGETTLYADSVKGRFTISRDNAKNTVYLQMNSLKIEDTAVYYCAVRRDSSWGYSRDLFEYDYWGQGTQVTVSS
B25: Nb94 (VHH)
VHH: QVQLVESGGGLVQAGGSLRLSCTASGGTFRSFTMAWFRQAPGKEREFVATLSWTGVGTYYADSVKGRFTISRDIAKNTVYLEMNSLIPEDTAVYYCAASPYTYSLLSRTGDYGYWGQGTQVTVSS
B26: Nb97 (VHH)
VHH: HVQLVESGGGLVQAGGSLRLSCAAPGRTFSTSAMGWFRQAPGKEREFVAAIDWSNTNIHYADTVKGRFTISTDTAKNTVYLQMNNLKPEDTAVYYCAQGGWGLTQPISVDYWGKGTQVTVSS
B27: Nb64 (VHH)
VHH: B6 VHH
B28: Nb95 (VHH)
VHH: QVQLVESGGGLVQAGGSLRLSCAASGRTFSSYSMGWFRQAQGKEREFVATINGNGRDTYYTNSVKGRFTISRDDATNTVYLQMNSLKPEDTAIYYCAADKDVYYGYTSFPNEYEYWGQGTQVTVSS
B29: Nb82 (VHH)
VHH: B14 VHH
B30: Nb107 (VHH)
VHH: B7 VHH
B31: Nb48 (VHH)
VHH: B16 VHH

Molecular target: SARS-CoV-2 Munich strain spike glycoprotein on authentic virus (SARS-CoV-2)
Assay: cell-based or functional assay

B1 was tested. Which “Authentic virus PRNT IC50” value did it give?
The value was 0.8 nM.

With B2 as the binder, how does the “Authentic virus PRNT IC50” value read?
The value was 0.766 nM.

For B3, which “Authentic virus PRNT IC50” value is on record?
The value was 1.72 nM.

For B4, which “Authentic virus PRNT IC50” value is on record?
The value was 1.23 nM.

Which “Authentic virus PRNT IC50” value does the source give for B5 here?
Its value is 0.452 nM.

Which “Authentic virus PRNT IC50” value does the source give for B6 here?
The value was 4.88 nM.

B7 was tested. Which “Authentic virus PRNT IC50” value did it give?
Its value is 0.181 nM.

Molecular target: T1, SARS-CoV-2 (Wuhan-Hu-1 strain) spike glycoprotein on pseudotyped virus particles (SARS-CoV-2, UniProt P0DTC2 14-1273)
Assay: cell-based or functional assay

How did the “Pseudo-neut IC50 Luciferase” value turn out when B8 was run?
The value was 14.5 nM.

Which “Pseudo-neut IC50 Luciferase” value does the source give for B1 here?
The value was 1.08 nM.

How did the “Pseudo-neut IC50 Luciferase” value turn out when B2 was run?
The value was 0.509 nM.

What does the source list for B9?
Pseudo-neut IC50 Luciferase: 0.102 nM; Pseudo-neutralization (GFP): < 0.5 nM

How did the “Pseudo-neut IC50 Luciferase” value turn out when B3 was run?
Its value is 1.5 nM.

How did the “Pseudo-neut IC50 Luciferase” value turn out when B10 was run?
Its value is 6.12 nM.

How did the “Pseudo-neut IC50 Luciferase” value turn out when B4 was run?
The value was 1.57 nM.

For B11, which “Pseudo-neutralization (GFP)” value is on record?
The value was 500 nM and 3000 nM.

For B5, which “Pseudo-neut IC50 Luciferase” value is on record?
The value was 0.524 nM.

For B12, which “Pseudo-neutralization (GFP)” value is on record?
The value was > 3000 nM.

With B13 as the binder, how does the “Pseudo-neutralization (GFP)” value read?
Its value is > 3000 nM.

Which “Pseudo-neut IC50 Luciferase” value does the source give for B6 here?
The value was 4.13 nM.

For B14, which “Pseudo-neut IC50 Luciferase” value is on record?
The value was 12.2 nM.

Which “Pseudo-neutralization (GFP)” value does the source give for B15 here?
Its value is > 3000 nM.

For B7, which “Pseudo-neut IC50 Luciferase” value is on record?
Its value is 0.569 nM.

How did the “Pseudo-neutralization (GFP)” value turn out when B16 was run?
The value was 500 nM and 3000 nM.

Molecular target: T1, SARS-CoV-2 (Wuhan-Hu-1 strain) spike …
Assay: cell-based or functional assay
Remark: another data set of the same source

B9 was tested. Which “IC50, pseudovirus assay” value did it give?
The value was 1.6 ng/mL.

Molecular target: SARS-CoV-2 spike receptor-binding domain (RBD) (SARS-CoV-2, UniProt P0DTC2 319-541)
Assay: indirect ELISA, RBD coated on plate, 4PL fit

With B17 as the binder, how does the ELISA affinity read?
The ELISA affinity was 0.92 nM.

With B18 as the binder, how does the ELISA affinity read?
The ELISA affinity was 1.04 nM.

For B19, which ELISA affinity is on record?
Its ELISA affinity is 28.4 nM.

For B20, which ELISA affinity is on record?
The ELISA affinity was 0.35 nM.

Which ELISA affinity does the source give for B21 here?
The ELISA affinity was 0.33 nM.

How did the ELISA affinity turn out when B22 was run?
Its ELISA affinity is 0.04 nM.

How did the ELISA affinity turn out when B23 was run?
The ELISA affinity was 1.51 nM.

Which ELISA affinity does the source give for B24 here?
Its ELISA affinity is 0.26 nM.

With B25 as the binder, how does the ELISA affinity read?
The ELISA affinity was 0.5 nM.

How did the ELISA affinity turn out when B26 was run?
Its ELISA affinity is 0.32 nM.

B27 was tested. Which ELISA affinity did it give?
The ELISA affinity was 0.45 nM.

For B28, which ELISA affinity is on record?
Its ELISA affinity is 2.28 nM.

With B29 as the binder, how does the ELISA affinity read?
Its ELISA affinity is 0.86 nM.

B30 was tested. Which ELISA affinity did it give?
Its ELISA affinity is 0.76 nM.

With B31 as the binder, how does the ELISA affinity read?
The ELISA affinity was 1.08 nM.

Molecular target: SARS-CoV-2 spike glycoprotein (Wuhan-Hu-1 strain) on pseudotyped virus particles (SARS-CoV-2 (Wuhan-Hu-1 strain), UniProt P0DTC2 14-1273)
Assay: cell-based or functional assay

B17 was tested. Which “Pseudo-neutralization IC50 (Luciferase)” value did it give?
Its value is 6 nM.

For B18, which “Pseudo-neutralization IC50 (Luciferase)” value is on record?
The value was 7 nM.

Which “Pseudo-neutralization (GFP)” value does the source give for B31 here?
Its value is 500 nM.
